system: Escherichia coli TOP10; assay: shrunken log2 fold change of peptide-encoding DNA abundance (4.5 h post-induction vs induction); higher = less antimicrobial activity (less host growth inhibition); details: time post-induction: 4.5 h; library: site-saturation at positions 5, 18, 19, 20
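Note: peptides expressed intracellularly from a pBAD plasmid library in pooled LB shake-flask culture, induced with 0.3% L-arabinose, DNA abundance read by NGS, three biological replicates, DESeq2 with apeglm shrinkage.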

Sequence | shrunken log2 fold change
RRIRLRPPRLPRPRPRPKQWPRP | 0.176
RRIRHRPPRLPRPRPRPYPFPRP | -0.772
RRIRHRPPRLPRPRPRPPLAPRP | 0.378
RRIRGRPPRLPRPRPRPDSWPRP | 0.627
RRIRSRPPRLPRPRPRPYDLPRP | -0.261
RRIRYRPPRLPRPRPRPNCFPRP | -0.43
RRIRPRPPRLPRPRPRPKLKPRP | 0.105
RRIRMRPPRLPRPRPRPIFCPRP | -0.0454
RRIRSRPPRLPRPRPRPYCVPRP | -0.912
RRIRDRPPRLPRPRPRPCCIPRP | 0.168
RRIRQRPPRLPRPRPRPAQYPRP | -0.0388
RRIRWRPPRLPRPRPRPMTCPRP | -0.34
RRIRHRPPRLPRPRPRPNIEPRP | -0.172
RRIRMRPPRLPRPRPRPDKFPRP | 0.194
RRIRTRPPRLPRPRPRPAMEPRP | -0.0176
RRIRRRPPRLPRPRPRPSCHPRP | -0.0344
RRIRIRPPRLPRPRPRPGEAPRP | -0.0281
RRIRARPPRLPRPRPRPMNTPRP | 0.0292
RRIRRRPPRLPRPRPRPCPCPRP | -0.176
RRIRMRPPRLPRPRPRPWYAPRP | -0.475
RRIRSRPPRLPRPRPRPLWFPRP | 0.274
RRIRKRPPRLPRPRPRPTLYPRP | 0.0394
RRIRMRPPRLPRPRPRPDIEPRP | 1.3
RRIRIRPPRLPRPRPRPLRFPRP | -0.21
RRIRCRPPRLPRPRPRPYLNPRP | -1.32

Sequence | shrunken log2 fold change
RRIRHRPPRLPRPRPRPKQQPRP | -0.0484
RRIRQRPPRLPRPRPRPQKRPRP | -0.354
RRIRARPPRLPRPRPRPCRGPRP | -0.1
RRIRSRPPRLPRPRPRPLVIPRP | -0.281
RRIRPRPPRLPRPRPRPSTNPRP | -0.301
RRIRLRPPRLPRPRPRPLFWPRP | 0.12
RRIRDRPPRLPRPRPRPTFSPRP | 0.743
RRIRARPPRLPRPRPRPYWCPRP | -0.33
RRIRYRPPRLPRPRPRPVLPPRP | -0.511
RRIRARPPRLPRPRPRPRCKPRP | 0.51
RRIRCRPPRLPRPRPRPKTTPRP | -0.000868
RRIRERPPRLPRPRPRPTWTPRP | -0.07
RRIRIRPPRLPRPRPRPVNHPRP | -0.288
RRIRKRPPRLPRPRPRPICPPRP | -0.122
RRIRLRPPRLPRPRPRPMLQPRP | -0.0201
RRIRCRPPRLPRPRPRPWHCPRP | -0.0285
RRIRVRPPRLPRPRPRPLTMPRP | -0.319
RRIRCRPPRLPRPRPRPLQGPRP | 0.0488
RRIRMRPPRLPRPRPRPRCTPRP | 0.6
RRIRHRPPRLPRPRPRPYLIPRP | -0.574
RRIRTRPPRLPRPRPRPFGCPRP | -0.0582
RRIRGRPPRLPRPRPRPCQVPRP | 0.224
RRIRSRPPRLPRPRPRPGTFPRP | 0.0493
RRIRGRPPRLPRPRPRPHKGPRP | -0.136
RRIRWRPPRLPRPRPRPESIPRP | 0.2

Sequence | shrunken log2 fold change
RRIRDRPPRLPRPRPRPVIIPRP | -0.316
RRIRMRPPRLPRPRPRPNSKPRP | -0.129
RRIRERPPRLPRPRPRPDFVPRP | 0.105
RRIRRRPPRLPRPRPRPAHYPRP | 0.445
RRIRERPPRLPRPRPRPTAMPRP | 0.109
RRIRERPPRLPRPRPRPRRYPRP | -0.184
RRIRDRPPRLPRPRPRPYWHPRP | -0.921
RRIRSRPPRLPRPRPRPLAAPRP | 0.562
RRIRNRPPRLPRPRPRPRWTPRP | 0.0415
RRIRARPPRLPRPRPRPMTMPRP | 0.245
RRIRARPPRLPRPRPRPMQNPRP | 0.767
RRIRQRPPRLPRPRPRPHHRPRP | 0.104
RRIRNRPPRLPRPRPRPWRKPRP | -0.0392
RRIRMRPPRLPRPRPRPMPCPRP | -0.00548
RRIRQRPPRLPRPRPRPWHNPRP | -0.385
RRIRFRPPRLPRPRPRPYTLPRP | -1.21
RRIRLRPPRLPRPRPRPGSAPRP | 0.273
RRIRVRPPRLPRPRPRPNVFPRP | 0.0413
RRIRCRPPRLPRPRPRPTRPPRP | 0.938
RRIRLRPPRLPRPRPRPCCYPRP | -0.611
RRIRRRPPRLPRPRPRPDPWPRP | 0.335
RRIRFRPPRLPRPRPRPSWHPRP | -0.475
RRIRQRPPRLPRPRPRPGNSPRP | -0.391
RRIRKRPPRLPRPRPRPYTFPRP | -0.264
RRIRSRPPRLPRPRPRPRMYPRP | -0.113

Source: the supplement of paper PMC9112550, “Optimization of the antimicrobial peptide Bac7 by deep mutational scanning” (BMC Biology, 2022)
